Assay results as given in PMC5832925, “Hypoxia-inducible lipid droplet-associated protein inhibits adipose triglyceride lipase” (Journal of Lipid Research, 2018).

What was measured:
[1] = target: T1, sf-GFP-mATGL288 (mouse ATGL residues 1-288 fused to superfolder GFP) (mouse) (UniProt Q8BJ56)
T1 sequence: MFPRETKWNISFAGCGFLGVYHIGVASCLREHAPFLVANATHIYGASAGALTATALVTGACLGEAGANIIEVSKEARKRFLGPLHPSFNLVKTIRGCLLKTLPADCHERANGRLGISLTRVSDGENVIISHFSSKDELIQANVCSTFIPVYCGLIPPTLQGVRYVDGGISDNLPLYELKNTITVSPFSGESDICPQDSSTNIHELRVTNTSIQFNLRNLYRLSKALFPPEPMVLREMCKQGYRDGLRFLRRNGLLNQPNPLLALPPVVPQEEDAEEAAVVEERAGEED

[2] = target: T2, sf-GFP-mATGL288 (mouse ATGL residues 1-288 fused to superfolder GFP) (mouse, UniProt Q8BJ56 1-288); test: cell-based or functional assay
T2 sequence (looked up): T1 sequence

[3] = target: T2, sf-GFP-mATGL288 (mouse ATGL residues …); test: MST; Monolith NT.115; smt3-tagged hHILPDA 1.1 μM to 487 μM titrated against 0.01 μM sf-GFP-mATGL_288; 20 mM phosphate, 300 mM NaCl, 1 mM EDTA, 1 mM DTT pH 7.0, 1% BSA; room temperature; triplicate; conditions: both partners purified

MKHVLNLYLLGVVLTLLSIFVRVM (domain or fragment) [hHILPDA_1-24 (6XHis-smt3-TEV fusion)]
IC50 of inhibition of TGH activity of mATGL288 lysate (without sf-GFP) with CGI-58; HILPDA 1-24 44 nM to 44 μM [1]: 5.4 µM

MKHVLNLYLLGVVLTLLSIFVRVMESLE (domain or fragment) [hHILPDA_1-28 (6XHis-smt3-TEV fusion)]
IC50 of inhibition of TGH activity of mATGL288 lysate (without sf-GFP) with CGI-58; HILPDA 1-28 44 nM to 44 μM [1]: 5 µM

B1: 6XHis-smt3-TEV-hHILPDA (human hypoxia-inducible lipid droplet-associated protein, full length) (natural protein, UniProt Q9Y5L2 1-63, looked up)
chain: MKHVLNLYLLGVVLTLLSIFVRVMESLEGLLESPSPGTSWTTRSQLANTEPTKGLPDHPSRSM
notes: human HILPDA (Hig-2), 63 amino acids, construct hHILPDA_1-63 in a modified pSUMO vector with 6XHis tag and TEV site; The fusion protein (22 kDa) was used without removal of smt3; a TEV site lies between smt3 and HILPDA; also called smt3-HILPDA fusion protein; source: E. coli BL21-CodonPlus (DE3)-RIL, purified (HisTrap FF, Superdex 200); not shown: smt3, N-terminal, kept
IC50 of inhibition of TGH activity of mATGL288 lysate (without sf-GFP) with CGI-58; HILPDA 44 nM to 44 μM [2]: 1.9 µM | Kd [3]: 247 µM
